# Results published in publication PMC5327734 (Nature communications, 2015).
# T1: pre-activated, recombinant, full length, human MST1 protein kinase (human, UniProt Q13043 1-487)
# T1 sequence (looked up): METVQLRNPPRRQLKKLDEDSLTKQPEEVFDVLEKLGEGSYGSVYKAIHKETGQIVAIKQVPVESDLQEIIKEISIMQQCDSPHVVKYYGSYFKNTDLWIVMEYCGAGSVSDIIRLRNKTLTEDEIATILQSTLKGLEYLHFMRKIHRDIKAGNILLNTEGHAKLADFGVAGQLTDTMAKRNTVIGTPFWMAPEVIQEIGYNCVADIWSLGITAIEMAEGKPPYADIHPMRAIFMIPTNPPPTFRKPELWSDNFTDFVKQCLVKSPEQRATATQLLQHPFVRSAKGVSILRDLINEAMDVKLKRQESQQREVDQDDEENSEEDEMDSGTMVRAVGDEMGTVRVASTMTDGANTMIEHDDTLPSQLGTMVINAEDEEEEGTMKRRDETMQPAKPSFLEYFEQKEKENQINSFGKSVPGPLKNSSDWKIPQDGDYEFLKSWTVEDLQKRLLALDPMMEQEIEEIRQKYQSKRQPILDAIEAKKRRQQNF
# Molecular target: T1, pre-activated, recombinant, full …
# Assay: pull-down
binder,measurement,value
"GST-YAP1-PR/TEAD (residues 2-150) (domain or fragment, UniProt P46937 2-150, looked up) DPGQQPPPQPAPQGQGQPPSQPPQGQGPPSGPGQPAPAATQAAPQAPPAGHQIVHVRGDSETDLEALFNAVMNPKTANVPQTVPMRLRKLPDSFFKPPEPKSHSRQASTDAGTAGALTPQHVRAHSSPASLQLGAVSPGTLTPTGVVSG",binding result,binds
